Target: ccnb2_human CCNB2 (UniProt O95067)
Chain of UniProt O95067 (O95067 whole entry): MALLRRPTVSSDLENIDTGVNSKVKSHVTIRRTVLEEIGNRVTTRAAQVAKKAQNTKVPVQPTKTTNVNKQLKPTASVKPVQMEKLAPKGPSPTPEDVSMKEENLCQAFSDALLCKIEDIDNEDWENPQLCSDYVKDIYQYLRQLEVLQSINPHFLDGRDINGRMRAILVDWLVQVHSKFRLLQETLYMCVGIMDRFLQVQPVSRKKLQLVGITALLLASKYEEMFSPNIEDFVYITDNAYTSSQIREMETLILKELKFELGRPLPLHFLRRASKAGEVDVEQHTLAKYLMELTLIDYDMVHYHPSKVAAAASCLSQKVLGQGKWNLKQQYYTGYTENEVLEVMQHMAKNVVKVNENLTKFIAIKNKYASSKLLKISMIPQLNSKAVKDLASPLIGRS

**Q.** For Filamin-A (Homo sapiens), P21333 S1436G, which “effect of a mutation on the interaction” value is on record?
**A.** The value was “disrupting interaction”.

Reference: IntAct's records for PubMed 17408621
